Data on 13 molecules can be found in paper PMC2597375 (Nature structural & molecular biology, 2008).

Where no end group is shown, it is not given here. [ ]: non-standard residue; d: D form. pS = N[C@@H](COP(=O)(O)O)C(=O)O

The target in experiment [1] is unlabeled double-repeat CTD-Ser2P/Ser5P peptide (S. cerevisiae). Put plainly: fluorescence polarisation. In general terms: In fluorescence polarisation assays a small probe gives low polarisation when free and higher when bound to something large.
Experiment [2] deals with unlabeled double-repeat CTD-Ser5P peptide (S. cerevisiae). Put plainly: fluorescence polarisation.
A further experiment concerns the target T1, Nrd1_(6–151) K21P (S. cerevisiae, UniProt P53617 6-151, K21P).
T1 sequence: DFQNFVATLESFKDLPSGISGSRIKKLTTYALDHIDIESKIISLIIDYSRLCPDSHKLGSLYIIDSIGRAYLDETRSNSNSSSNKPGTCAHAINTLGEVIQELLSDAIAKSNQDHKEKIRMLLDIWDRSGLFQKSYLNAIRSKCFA
Put plainly: fluorescence polarisation.

For a further experiment, the target named is T2, Nrd1_(6–151) I130R (S. cerevisiae, UniProt P53617 6-151, I130R).
T2 sequence: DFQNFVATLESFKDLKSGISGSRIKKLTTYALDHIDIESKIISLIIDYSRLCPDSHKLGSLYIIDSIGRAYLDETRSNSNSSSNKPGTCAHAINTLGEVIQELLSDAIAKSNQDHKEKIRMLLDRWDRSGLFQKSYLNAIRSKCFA
The experiment is described as follows: fluorescence polarisation.

Another experiment has as its target T3, Nrd1_(6–151) S22D (S. cerevisiae, UniProt P53617 6-151, S22D).
T3 sequence: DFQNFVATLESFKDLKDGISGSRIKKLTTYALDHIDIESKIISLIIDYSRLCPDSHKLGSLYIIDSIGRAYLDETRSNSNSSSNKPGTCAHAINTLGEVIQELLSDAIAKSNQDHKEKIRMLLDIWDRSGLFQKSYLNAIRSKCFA
The experiment is described as follows: fluorescence polarisation.

The next experiment addresses T4, Nrd1_(6–151) L20D (S. cerevisiae, UniProt P53617 6-151, L20D).
T4 sequence: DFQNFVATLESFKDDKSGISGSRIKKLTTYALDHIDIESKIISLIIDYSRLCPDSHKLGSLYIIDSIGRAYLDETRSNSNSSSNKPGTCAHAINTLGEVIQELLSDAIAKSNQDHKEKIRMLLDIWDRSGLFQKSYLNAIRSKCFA
Put plainly: fluorescence polarisation.

The next experiment has as its target T5, Nrd1_(6–151) K21D (S. cerevisiae, UniProt P53617 6-151, K21D).
T5 sequence: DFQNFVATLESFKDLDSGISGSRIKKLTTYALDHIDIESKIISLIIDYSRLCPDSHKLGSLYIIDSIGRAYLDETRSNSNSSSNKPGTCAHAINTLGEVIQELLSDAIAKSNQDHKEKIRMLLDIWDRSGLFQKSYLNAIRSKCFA
Put plainly: fluorescence polarisation.

The target in the next experiment is T6, Nrd1_(6–151) wild-type (S. cerevisiae, UniProt P53617 6-151).
T6 sequence: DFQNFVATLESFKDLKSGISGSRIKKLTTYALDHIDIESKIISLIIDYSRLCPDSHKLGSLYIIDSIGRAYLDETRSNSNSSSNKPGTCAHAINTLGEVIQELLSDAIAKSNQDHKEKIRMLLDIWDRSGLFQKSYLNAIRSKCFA
Put plainly: fluorescence polarisation.

Another experiment relates to Pol II. Format: binding, S. cerevisiae. Particulars: whole-cell extracts, IgG purification, anti-CTD Ser5P (H14) immunoblot. (In general: A western blot detects proteins with antibodies after separation by electrophoresis.)
In a further experiment the target is T7, Nrd1_(6–224) (S. cerevisiae, UniProt P53617 6-224).
T7 sequence: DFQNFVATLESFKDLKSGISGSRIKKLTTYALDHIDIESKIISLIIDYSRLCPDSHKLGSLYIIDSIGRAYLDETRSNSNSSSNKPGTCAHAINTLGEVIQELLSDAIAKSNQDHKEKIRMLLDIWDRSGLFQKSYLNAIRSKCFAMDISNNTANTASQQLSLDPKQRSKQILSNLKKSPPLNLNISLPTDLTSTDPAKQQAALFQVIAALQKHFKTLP
The experiment is described as follows: ITC. For orientation: Isothermal titration calorimetry measures the heat released or taken up as one component is titrated into another.

The test system of a further experiment is CTD. Put plainly: CTD binding of Nrd1 variants. Particulars: point mutants: fluorescence anisotropy, Table 1; deletions: data not shown.

A word on the Kd: it is the concentration at which binding is half-saturated. In [1], “Nrd1_(6–151) L20D (from UniProt P53617 6-151) (domain or fragment)” came in with a Kd of 19 µM.
In turn, “Nrd1_(6–214) wild-type (from UniProt P53617 6-214) (domain or fragment)” came in with a Kd in [2] of 48 µM.
Take “Nrd1_(6–151) wild-type (from UniProt P53617 6-151) (domain or fragment)”: the Kd is 40 µM in [2] and 16 µM in experiment [1].

B1: Nrd1_(6–151) K21P (domain or fragment)
chain: DFQNFVATLESFKDLPSGISGSRIKKLTTYALDHIDIESKIISLIIDYSRLCPDSHKLGSLYIIDSIGRAYLDETRSNSNSSSNKPGTCAHAINTLGEVIQELLSDAIAKSNQDHKEKIRMLLDIWDRSGLFQKSYLNAIRSKCFA
As for B1, the Kd in experiment [2] turned out to be 70 µM; in [1] it was 48 µM.

B2: Nrd1_(6–151) D70R (domain or fragment)
chain: DFQNFVATLESFKDLKSGISGSRIKKLTTYALDHIDIESKIISLIIDYSRLCPDSHKLGSLYIIRSIGRAYLDETRSNSNSSSNKPGTCAHAINTLGEVIQELLSDAIAKSNQDHKEKIRMLLDIWDRSGLFQKSYLNAIRSKCFA
Regarding B2, the figures for the Kd in [2] and in experiment [1] were 680 µM and 100 µM, respectively.

B3: Nrd1_(6–151) S22D (domain or fragment)
chain: DFQNFVATLESFKDLKDGISGSRIKKLTTYALDHIDIESKIISLIIDYSRLCPDSHKLGSLYIIDSIGRAYLDETRSNSNSSSNKPGTCAHAINTLGEVIQELLSDAIAKSNQDHKEKIRMLLDIWDRSGLFQKSYLNAIRSKCFA
For the molecule B3, the Kd came out at 140 µM in experiment [2] and 100 µM in experiment [1].

B4: Nrd1_(6–151) I130R (domain or fragment)
chain: DFQNFVATLESFKDLKSGISGSRIKKLTTYALDHIDIESKIISLIIDYSRLCPDSHKLGSLYIIDSIGRAYLDETRSNSNSSSNKPGTCAHAINTLGEVIQELLSDAIAKSNQDHKEKIRMLLDRWDRSGLFQKSYLNAIRSKCFA
B4: the Kd came out at 215 µM in experiment [2] and 27 µM in experiment [1].

B5: Nrd1_(6–151) K21D (domain or fragment)
chain: DFQNFVATLESFKDLDSGISGSRIKKLTTYALDHIDIESKIISLIIDYSRLCPDSHKLGSLYIIDSIGRAYLDETRSNSNSSSNKPGTCAHAINTLGEVIQELLSDAIAKSNQDHKEKIRMLLDIWDRSGLFQKSYLNAIRSKCFA
As for B5, the dissociation constant Kd is 95 µM in experiment [2] and 70 µM in experiment [1].
Y[pS]PTSPSY[pS]PTSPS [unlabeled double-repeat CTD-Ser2P peptide]: the Kd came out at 380 µM with Nrd1_(6–151) K21P; 550 µM with Nrd1_(6–151) I130R; 470 µM with Nrd1_(6–151) S22D; 560 µM with Nrd1_(6–151) L20D; 610 µM with Nrd1_(6–151) K21D; 390 µM with Nrd1_(6–151) wild-type.

B6: Nrd1Δ6–150 (protein)
chain: MQQDDAMDISNNTANTASQQLSLDPKQRSKQILSNLKKSPPLNLNISLPTDLTSTDPAKQQAALFQVIAALQKHFKTLPSHTSVGTVAPPQAHTITEYGSRRERERERERYNSRRNRSRSPPAPFSQPSTGRKDRYPSVAQDQYSIGAPNTTFGTNNHHLYPDELNVSNNPHYRPKPVSYDSTLPPDHIKVYSRTLFIGGVPLNMKEWDLANVLKPFAEVQSVILNNSRKHAFVKVYSRHEAENVLQNFNKDGALPLRTRWGVGFGPRDCCDYQHGYSIIPMHRLTDADKKWSVSAQWGGTSGQPLVTGIVFEEPDIIVGEGVSSKAISQKMPTDSGRNGPRSGKPNKSGSISSISPVPYGNAPLASPPPQQYVQPMMQQPYGYAPNQPLPSQGPAAAAPPVPQQQFDPTAQLNSLMNMLNQQQQQQQQS
modifications: left off: TAP (with Protein A module), end not stated, kept
Turning to B6, the “Association with Pol II” value in the experiment on Pol II is reported as “greatly reduced association with Pol II”.
One may read the stoichiometry N as a count of units in the complex or per binding partner. For ENVNYDLLQKQVKYIMDSNMLNLPQFQHLPQEEKMSAILAMLNSN (domain or fragment) [Nab3_(204–248)], in the experiment with Nrd1_(6–224), the affinity, expressed as Kd, was 0.16 µM and the “stoichiometry N” value came to 1.

B7: Nrd1_307–560: containing only the RNA binding region and the C-terminal region (protein)
chain: PDELNVSNNPHYRPKPVSYDSTLPPDHIKVYSRTLFIGGVPLNMKEWDLANVLKPFAEVQSVILNNSRKHAFVKVYSRHEAENVLQNFNKDGALPLRTRWGVGFGPRDCCDYQHGYSIIPMHRLTDADKKWSVSAQWGGTSGQPLVTGIVFEEPDIIVGEGVSSKAISQKMPTDSGRNGPRSGKPNKSGSISSISPVPYGNAPLASPPPQQYVQPMMQQPYGYAPNQPLPSQGPAAAAPPVPQQQFDPTAQLNS
As for B7, the “CTD binding of Nrd1 variant” value in the experiment with CTD is recorded as “no CTD binding”.

B8: Nrd1Δ151–214 (protein)
chain: MQQDDDFQNFVATLESFKDLKSGISGSRIKKLTTYALDHIDIESKIISLIIDYSRLCPDSHKLGSLYIIDSIGRAYLDETRSNSNSSSNKPGTCAHAINTLGEVIQELLSDAIAKSNQDHKEKIRMLLDIWDRSGLFQKSYLNAIRSKCFALQKHFKTLPSHTSVGTVAPPQAHTITEYGSRRERERERERYNSRRNRSRSPPAPFSQPSTGRKDRYPSVAQDQYSIGAPNTTFGTNNHHLYPDELNVSNNPHYRPKPVSYDSTLPPDHIKVYSRTLFIGGVPLNMKEWDLANVLKPFAEVQSVILNNSRKHAFVKVYSRHEAENVLQNFNKDGALPLRTRWGVGFGPRDCCDYQHGYSIIPMHRLTDADKKWSVSAQWGGTSGQPLVTGIVFEEPDIIVGEGVSSKAISQKMPTDSGRNGPRSGKPNKSGSISSISPVPYGNAPLASPPPQQYVQPMMQQPYGYAPNQPLPSQGPAAAAPPVPQQQFDPTAQLNSLMNMLNQQQQQQQQS
modifications: left off: TAP (with Protein A module), end not stated, kept
For the molecule B8, in the experiment on Pol II, the “Association with Pol II” value is given as “greatly reduced association with Pol II”.
